Results reported in patent publication US6512102B1, “Compositions and methods of diagnosis and treatment using casein kinase I” (Chiron Corporation, priority 1998, dated 2003).

B1: Wnt-1: Wnt-1 expressed from transfected plasmid (protein, UniProt P04628 28-370, looked up)
Proto-oncogene Wnt-1: ANSSGRWWGIVNVASSTNLLTDSKSLQLVLEPSLQLLSRKQRRLIRQNPGILHSVSGGLQSAVRECKWQFRNRRWNCPTAPGPHLFGKIVNRGCRETAFIFAITSAGVTHSVARSCSEGSIESCTCDYRRRGPGGPDWHWGGCSDNIDFGRLFGREFVDSGEKGRDLRFLMNLHNNEAGRTTVFSEMRQECKCHGMSGSCTVRTCWMRLPTLRAVGDVLRDRFDGASRVLYGNRGSNRASRAELLRLEPEDPAHKPPSPHDLVYFEKSPNFCTYSGRLGTAGTAGRACNSSSPALDGCELLCCGRGHRTRTQRVTERCNCTFHWCCHVSCRNCTHTRVLHECL
B2: CKI lys→arg 38: kinase-inactive CKIε construct in which lysine 38 in the kinase domain was mutated to arginine (protein)
chain: MELRVGNKYRLGRKIGSGSFGDIYLGANIASGEEVAIRLECVKTKHPQLHIESKFYKMMQGGVGIPSIKWCGAEGDYNVMVMELLGPSLEDLFNFCSRKFSLKTVLLLADQMISRIEYIHSKNFIHRDVKPDNFLMGLGKKGNLVYIIDFGLAKKYRDARTHQHIPYRENKNLTGTARYASINTHLGIEQSRRDDLESLGYVLMYFNLGSLPWQGLKAATKRQKYERISEKKMSTPIEVLCKGYPSEFSTYLNFCRSLRFDDKPDYSYLRQLFRNLFHRQGFSYDYVFDWNMLKFGAARNPEDVDRERREHEREERMGQLRGSATRALPPGPPTGATANRLRSAAEPVASTPASRIQQTGNTSPRAISRADRERKVSMRLHRGAPANVSSSDLTGRQEVSRLAASQTSVPFDHLGK
modifications: Mus Casein Kinase I epsilon

Legend:
[1] = test system: Lef-1 dependent transcription; test: Lef-1 enhancer luciferase reporter assay in Cos cells; assay type: cell-based; details: for Wnt signal transduction (Lef-luciferase): variant co-transfected with Wnt-1; for signal transduced by dominant negative GSK3 (DNGSK3): variant co-transfected with dominant negative GSK3 and Lef-1; for luciferase activity transduced by Dvl-1: variant with Dvl-1
Procedure: (§1) Combinations of Wnt-1, CKIε, CKI kinase dead variant (lys→arg 38) and Lef-1 were transfected into Cos cells with a luciferase gene driven by multiple copies of Lef enhancer elements. As an internal control of transfection efficiency, the β-galactosidase gene driven by the SV40 promoter was co-transfected in all samples. 24 hours after transfection, cells were lysed and the lysate was tested for luciferase activity. The luciferase activity was normalized with respect to β-galactosidase activity. […] Dorsoanterior index (DAI) grade numbers were assigned to the phenotypes of the embryos. A grade 5 embryo is normal; a grade 3 embryo is cyclopic (one eye); a grade 1 embryo has a tail fin and somites but no head (acephalic); and a grade 0 embryo has no dorsoanterior structures (Kao et al., 1988).
The effect of CKI on Lef-1 dependent transcription in Cos mammalian cells was examined. A luciferase reporter gene driven by multiple copies of the Lef-I enhancer sequence was used. When only Wnt-I or lef-I or CKIε was transfected with the reporter construct, luciferase activity was induced only 2 to 3 fold (FIG. 1A). When Lef-1 was cotransfected with either Wnt-1 or CKIε, luciferase activity was induced 30 or 12 fold respectively.
Luciferase reporter plasmid contains multiple Lef-I enhancer sites upstream of the fos basal promoter. Various DNA plasmids encoding Wnt-1, CKIε , Dvl-1, GSK3 etc. were co-transfected with a luciferase reporter plasmid and a SV40 β-galactosidase plasmid into 24-well Cos cell culture. For each well, 0.5 μg total DNA was in a ratio of 0.08 μg:016 μg:0.02 μg for signaling molecules:luciferase: β-gal. SV40 β-gal construct was used as an internal transfection control, since β-gal activity is independent of the Wnt-1 signaling molecules. Transfection was done using LT1 (5 μl/μg DNA) (Panvera Co. # MIR23 10). Each sample was transfected in triplex repeats to obtain a statistical value. After 24 hours, cells were washed once with PBS and lysed in 50 μl/well lysis buffer supplied with the luciferase assay kit (Promega cat# EI500). 10 μl of each sample was aliquoted into two sets of tubes, one set for the luciferase assay and another for β-gal chemiluminescent reporter assay (Galacto-Light, TROPIX Inc. #BL100G). The result of the luciferase assay was divided by the corresponding β-gal activity, and then averaged.

[2] = test system: Lef-1 reporter gene activity; test: Lef-1 reporter gene assay in 293 cells after antisense transfection; assay type: cell-based; details: Wnt-1 expressed in 293 cells
Procedure: FIGS. 4A-C Lef-1 reporter gene activity induced by Wnt (A), Dv1-3 (B), or mutant β-catenin (C) is inhibited by CKIε antisense polynucleotides (CKI-a and CKI-b), but not by the reverse sequence control (RC). 293 cells were plated at a density of 1.5*10^5 cells per 12-well dish 16 hours prior to transfection 6 ul 0.5 mM cationic lipitoid and 2 ul 100 uM polynucleotide in 50 ul opti-MEM (Life Technologies) was mixed together and added dropwise to cells in 1 ml of fresh media. After 24 hours cells, cells were washed with opti-MEM and transfected with luciferase reporter plasmids (0.02 mg lef-1, 0.2 lef-1 reporter, 0.03 mg renilla luciferase) control using lipofectamine (Life Technologies). Cells were assayed for luciferase activity 48 hours after transfection of antisense polynucleotides.
One method for measuring activation of gene expression by the Wnt pathway is to use the Lef-1 reporter gene assay. Antisense polynucleotides were transfected into cells by using cationic peptoid reagents followed by transfection with Lef-1, Lef-1 reporter, and Wnt-1 plasmids using lipofectamine (Life Technologies). Lef-1 reporter gene activity was measured using the Dual-Luciferase Reporter Assay System (Promega) according to the manufacturers specifications. […]

[3] = test system: ventralized Xenopus embryo; test: Rescue of dorsal structure of ventralized Xenopus embryos by injected RNA; assay type: in vivo; details: RNA injected into ventralized embryos
Procedure: as §1
Furthermore, when the variant was co-transfected with CKIε into Cos cells, Lef-1-dependent luciferase activity was inhibited. […] Thus, the variant interferes with Wnt signaling, acting as a dominant negative.

casein = test: Kinase activity of construct transfected into Cos cells, casein as substrate; assay type: biochemical; details: substrate casein protein
Procedure: It was transiently transfected into Cos cells and its activity was tested using substrate casein protein.

Molecule	luciferase activity induced ([1]; cotransfected with Lef-1, Cos cells)	stimulation of Lef-1 reporter gene transcription over vector transfected cells [2]	Lef-1-dependent luciferase activity ([1]; variant co-transfected with CKIε)	Wnt signal transduction (Lef-luciferase) [1]	Wnt signal transduction (Lef-luciferase) ([1]; listed as CKIKD)	signal transduced by dominant negative GSK3 (DNGSK3) [1]	signal transduced by dominant negative GSK3 (DNGSK3) ([1]; listed as variant)	luciferase activity transduced by Dvl-1 [1]	luciferase activity transduced by Dvl-1 ([1]; listed as variant)	rescue of embryonic dorsal structure [3]	kinase activity (casein)
B1	30 fold	4-6 fold									
B2			inhibited	blocked the Wnt signal transduction in a dose-dependent manner	inhibits Wnt signaling	did not inhibit the signal	did not reduce the signal	inhibited	inhibited the effect of Dv1-1 on luciferase activity	failed to do so	no detectable kinase activity
